Data on four molecules can be found in publication PMC4333382, “RNA helicase A activity is inhibited by oncogenic transcription factor EWS-FLI1” (Nucleic Acids Research, 2015).

One data set has as its target T1, EWS-FLI1 (UniProt F1JVV7).
T1 sequence: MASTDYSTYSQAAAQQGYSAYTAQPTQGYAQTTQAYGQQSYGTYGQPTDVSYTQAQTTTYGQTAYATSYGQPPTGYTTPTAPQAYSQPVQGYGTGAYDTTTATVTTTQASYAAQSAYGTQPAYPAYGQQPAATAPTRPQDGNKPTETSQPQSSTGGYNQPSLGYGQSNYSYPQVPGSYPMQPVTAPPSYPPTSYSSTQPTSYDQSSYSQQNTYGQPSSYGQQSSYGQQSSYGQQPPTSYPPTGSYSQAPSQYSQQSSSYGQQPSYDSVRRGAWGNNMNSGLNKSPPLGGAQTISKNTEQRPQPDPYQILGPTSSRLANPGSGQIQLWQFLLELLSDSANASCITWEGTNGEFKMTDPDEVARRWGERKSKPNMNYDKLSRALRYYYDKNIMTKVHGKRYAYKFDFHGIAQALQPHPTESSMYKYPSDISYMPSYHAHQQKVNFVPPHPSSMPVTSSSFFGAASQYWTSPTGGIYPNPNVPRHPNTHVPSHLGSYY
Kind of data set: EMSA.

Another data set has as its system RHA (RNA helicase A). Kind of data set: EMSA.
The target of data set [1] is T2, RNA helicase A (RHA, DHX9) (Homo sapiens, UniProt Q08211).
T2 construct: full-length, N-terminal His-tag, baculovirus / Sf9 cells, nickel IMAC and heparin purified
T2 sequence (Q08211 whole entry): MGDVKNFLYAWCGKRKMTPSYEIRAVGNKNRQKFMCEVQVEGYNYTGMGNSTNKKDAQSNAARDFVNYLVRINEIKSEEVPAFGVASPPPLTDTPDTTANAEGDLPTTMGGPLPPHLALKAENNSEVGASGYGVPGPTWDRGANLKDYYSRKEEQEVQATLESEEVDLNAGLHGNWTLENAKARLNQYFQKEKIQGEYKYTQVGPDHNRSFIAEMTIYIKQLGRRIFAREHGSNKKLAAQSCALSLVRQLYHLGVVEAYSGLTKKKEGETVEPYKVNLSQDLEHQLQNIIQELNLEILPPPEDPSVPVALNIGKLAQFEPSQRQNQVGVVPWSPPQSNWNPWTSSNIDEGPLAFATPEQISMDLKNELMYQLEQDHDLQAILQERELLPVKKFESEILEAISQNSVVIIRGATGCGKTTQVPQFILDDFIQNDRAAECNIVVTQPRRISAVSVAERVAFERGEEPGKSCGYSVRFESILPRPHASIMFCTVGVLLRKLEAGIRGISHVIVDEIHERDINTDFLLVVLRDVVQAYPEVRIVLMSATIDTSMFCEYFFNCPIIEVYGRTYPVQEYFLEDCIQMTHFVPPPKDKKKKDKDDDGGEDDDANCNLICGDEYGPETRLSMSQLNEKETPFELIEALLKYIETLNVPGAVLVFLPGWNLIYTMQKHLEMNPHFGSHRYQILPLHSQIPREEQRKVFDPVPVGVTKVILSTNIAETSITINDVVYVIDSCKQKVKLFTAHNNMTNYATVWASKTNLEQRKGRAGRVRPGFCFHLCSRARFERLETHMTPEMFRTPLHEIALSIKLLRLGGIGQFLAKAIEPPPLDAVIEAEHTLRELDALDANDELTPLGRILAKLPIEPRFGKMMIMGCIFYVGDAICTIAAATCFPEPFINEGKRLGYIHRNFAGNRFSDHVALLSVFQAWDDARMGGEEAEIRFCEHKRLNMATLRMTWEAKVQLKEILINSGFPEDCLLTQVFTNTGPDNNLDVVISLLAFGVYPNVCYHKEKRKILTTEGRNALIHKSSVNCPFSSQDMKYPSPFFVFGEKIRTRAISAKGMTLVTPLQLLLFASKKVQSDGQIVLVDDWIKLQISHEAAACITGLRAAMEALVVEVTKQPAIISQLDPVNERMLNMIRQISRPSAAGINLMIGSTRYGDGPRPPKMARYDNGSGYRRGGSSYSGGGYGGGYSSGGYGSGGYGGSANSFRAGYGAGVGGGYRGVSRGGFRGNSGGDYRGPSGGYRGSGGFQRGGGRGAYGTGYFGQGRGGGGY
Kind of data set: dsRNA strand-separation gel assay. The data set is classed as biochemical. Particulars: 2 mM nucleotide, 2 mM MgCl2, pH 7.5, dsRNA.

Data set [2] deals with RNA helicase A (human) (UniProt Q08211).
Chain of RNA helicase A (human) (Q08211 whole entry): as above
For data set [3] the target is unchanged. This is another data set of the same source.
Data set [4] shares this target. As to the kind of experiment: SPR; RHA amine-coupled to a CM5 chip (~1800 RU); EWS-FLI1 as analyte at 24 to 0.375 nM; HBS-P with 1-mM TCEP, 2-mM MgCl2, 0.1-M imidazole, pH 7.4; flow 100 ul/min, contact 60 s, dissociation 600 s; sample compartment at 10°C; 1:1 Langmuir model; Biacore T-200.

Regarding “350-nt partially double-stranded HDV RNA”, the Kd with EWS-FLI1 worked out at 30 nM; with RHA (RNA helicase A) it was 4.7 nM. In the data set with EWS-FLI1, the binding signal (fold decrease in affinity) was 3.

With `Nc1ncnc2c1ncn2[C@@H]1O[C@H](COP(=O)(O)OP(=O)(O)OP(=O)(O)O)[C@@H](O)[C@H]1O` [ATP], the “dsRNA strand-separation gel assay” value in data set [1] is “Our purified RHA utilizes ATP, CTP, Uridine triphosphate (UTP) and Guanosine triphosphate (GTP)”.

Consider `Nc1ccn([C@@H]2O[C@H](COP(=O)(O)OP(=O)(O)OP(=O)(O)O)[C@@H](O)[C@H]2O)c(=O)n1` [CTP], for which, in data set [1], the “dsRNA strand-separation gel assay” value was “Our purified RHA utilizes ATP, CTP, Uridine triphosphate (UTP) and Guanosine triphosphate (GTP)”.

In the case of EWS-FLI1, in the data set with RNA helicase A (human) [2], the reduction of the initial velocity of RHA helicase activity (dsRNA strand separation), 1-nM RHA with 0.5 to 10 nM EWS-FLI1 (58% reduction at 1 nM) came to 78%. In addition, the helicase activity of 1-nM RHA in the presence of 1-nM EWS-FLI1 with racemic YK-4-279 or (S)-YK-4-279 (30 uM) with RNA helicase A (human) [3] was determined as 80%. Moreover, in the data set with RNA helicase A (human) [4], the Kd stood at 14 nM, the koff stood at 0.03 s⁻¹ and the kon was determined as 3.5e+06 M⁻¹ s⁻¹.
